The values that follow come from patent US20120252691, “MODIFIED NUCLEOTIDES METHODS AND KITS” (Pierce Biotechnology, Inc., published 2012).

The data set deals with PABPC1-GST (Poly(A) binding protein) (UniProt P11940 P11940:1-636). As to the kind of experiment: pulldown; 10 mM Tris pH 7.5, 2.5 mM MgCl2, 10 mM KCl, 15% glycerol, tRNA, 4 C; also with UV crosslinking (FIG. 17). The settings on record: tags: GST; label: 3'-biotin-PEG12-alkane-cytidine. As to the method:
Poly(A)₂₅ RNA was labeled using biotin-PEG₁₂-alkane-3′5′-bisphosphate cytidine and T4 RNA ligase. The Poly(A) Binding Protein (PABP), which binds the poly(A) tracts of mRNA, was cloned into a vector containing a GST-tag and expressed in a human cell-free in vitro translation (IVT) system. The lysate was diluted 1:10 for use in the binding reaction. The labeled RNA (50 pmol) was incubated with streptavidin magnetic beads (0.5 mg) for thirty minutes in 20 mM Tris-HCl (7.5), 100 mM NaCl, 1 mM EDTA. After washing, the beads were then incubated with 2-3 μl of diluted IVT lysate cell lysate in Binding Buffer (10 mM Tris-HCl, pH 7.5, 2.5 mM MgCl₂, 10 mM KCl, 15% glycerol, 0.5% Tween-20, and 10 μg tRNA) for one hour at 4° C. An unrelated RNA was used as a negative control, and beads were incubated with lysate alone to assess background. […] After separation by electrophoresis, PABP was detected using PABP antibody.
Synthetic RNA (50 pmol/reaction) was end-labeled using a twenty-fold excess of Biotin-PEG₁₂-Alkane-3′5′-Bisphosphate Cytidine with T4 RNA ligase. […] Normalized samples were separated by electrophoresis, transferred, and detected using PABPC1, GST (SNRPA1) antibodies (1:1000 dilution in TBST-0.5% BSA). […]

Chain of PABPC1-GST (Poly(A) binding protein) (P11940 whole entry, one chain of several): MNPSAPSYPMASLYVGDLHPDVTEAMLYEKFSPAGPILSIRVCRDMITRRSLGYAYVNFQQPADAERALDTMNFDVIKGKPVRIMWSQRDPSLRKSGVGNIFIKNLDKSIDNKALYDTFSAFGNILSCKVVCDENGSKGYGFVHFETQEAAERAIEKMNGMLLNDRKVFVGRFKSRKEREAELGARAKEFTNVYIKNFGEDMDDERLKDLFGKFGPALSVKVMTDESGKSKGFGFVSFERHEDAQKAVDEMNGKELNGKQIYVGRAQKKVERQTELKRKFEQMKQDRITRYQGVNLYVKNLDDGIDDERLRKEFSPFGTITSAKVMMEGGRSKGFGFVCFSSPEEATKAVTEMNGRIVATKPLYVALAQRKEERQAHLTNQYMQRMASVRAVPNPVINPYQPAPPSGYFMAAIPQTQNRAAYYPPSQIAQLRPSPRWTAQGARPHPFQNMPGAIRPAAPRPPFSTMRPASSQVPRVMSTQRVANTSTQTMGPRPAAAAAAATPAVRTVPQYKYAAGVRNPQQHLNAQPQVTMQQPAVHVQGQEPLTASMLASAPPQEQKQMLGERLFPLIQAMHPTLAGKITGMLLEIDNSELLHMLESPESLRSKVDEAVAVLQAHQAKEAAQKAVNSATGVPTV

With AAAAAAAAAAAAAAAAAAAAAAAAA (ssRNA) [Poly(A)25 RNA, biotin-PEG12], the binding result is “binds”.
